According to patent US20090029370A1 (TRUSTEES OF BOSTON UNIVERSITY, published 2009):

Target: T1, alpha-fragment of EGFP (alphaCys-fragment, 1-158) without oligonucleotide (Aequorea victoria, UniProt P42212 1-158 = GFP)
T1 construct: range 1-158; also called α-subunit of EGFP
Test: fluorescence spectra after mixing the fragments in vitro

B1: beta-fragment of EGFP (betaCys-fragment, 159-234 aa) without oligonucleotide (other)
chain: not shown
notes: range 159-234; also called β-subunit of EGFP
  binding result: no binding
